B1: Protein LYRIC (Mus musculus), Q80WJ7 (parent)
chain: MAARSWQDELAQQAEEGSARLRELLSVGLGFLRTELGLDLGLEPKRYPGWVILVGTGALGLLLLFLLGYGWAAACAGARKKRRSPPRKREEAAPPTPAPDDLAQLKNLRSEEQKKKNRKKLPEKPKPNGRTVEVPEDEVVRNPRSITAKQAPETDKKNEKSKKNKKKSKSDAKAVQNSSRHDGKEVDEGAWETKISHREKRQQRKRDKVLTDSGSLDSTIPGIENIITVTTEQLTTASFPVGSKKNKGDSHLNVQVSNFKSGKGDSTLQVSSRLNENLTVNGGGWSEKSVKLSSQLSEEKWNSVPPASAGKRKTEPSAWTQDTGDTNANGKDWGRNWSDRSIFSGIGSTAEPVSQSTTSDYQWDVSRNQPYIDDEWSGLNGLSSADPSSDWNAPAEEWGNWVDEDRASLLKSQEPISNDQKVSDDDKEKGEGALPTGKSKKKKKKKKKQGEDNSHTQDTEDLEKDTREELPVNTSKARPKQEKACSLKTMSTSDPAEVLIKNSQPVKTLPPAISAEPSITLSKGDSDNSSSQVPPMLQDTDKPKSNAKQNSVPPSQTKSETNWESPKQIKKKKKARRET
partner: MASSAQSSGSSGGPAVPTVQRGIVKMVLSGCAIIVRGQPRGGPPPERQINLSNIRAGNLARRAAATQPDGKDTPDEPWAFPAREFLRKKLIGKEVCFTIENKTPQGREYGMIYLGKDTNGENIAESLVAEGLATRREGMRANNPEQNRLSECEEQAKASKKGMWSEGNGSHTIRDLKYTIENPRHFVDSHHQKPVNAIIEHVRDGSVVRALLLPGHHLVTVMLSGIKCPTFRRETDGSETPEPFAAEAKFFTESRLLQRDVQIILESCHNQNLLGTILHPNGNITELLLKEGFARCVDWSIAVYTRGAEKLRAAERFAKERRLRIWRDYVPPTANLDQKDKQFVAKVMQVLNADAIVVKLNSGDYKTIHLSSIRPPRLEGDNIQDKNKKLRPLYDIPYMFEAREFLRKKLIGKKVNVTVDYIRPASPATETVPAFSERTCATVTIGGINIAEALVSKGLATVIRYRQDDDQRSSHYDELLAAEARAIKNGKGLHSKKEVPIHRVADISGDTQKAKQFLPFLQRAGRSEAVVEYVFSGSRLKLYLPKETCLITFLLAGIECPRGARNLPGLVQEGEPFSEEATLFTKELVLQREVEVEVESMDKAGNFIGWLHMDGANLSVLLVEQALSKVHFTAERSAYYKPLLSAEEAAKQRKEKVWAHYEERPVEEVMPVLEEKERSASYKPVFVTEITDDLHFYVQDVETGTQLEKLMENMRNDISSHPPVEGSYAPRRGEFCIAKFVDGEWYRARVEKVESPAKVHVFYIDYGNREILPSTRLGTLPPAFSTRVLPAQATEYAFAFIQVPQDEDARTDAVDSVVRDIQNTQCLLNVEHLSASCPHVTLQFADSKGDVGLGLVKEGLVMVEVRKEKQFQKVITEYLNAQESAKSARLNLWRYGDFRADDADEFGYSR

Variants of: B1
Conditions: with snd1_mouse Snd1, Q78PY7

Variant | effect of a mutation on the interaction
MAARSWQDELAQQAEEGSARLRELLSVGLGFLRTELGLDLGLEPKRYPGWVILVGTGALGLLLLFLLGYGWAAACAGARKKRRSPPRKREEAAPPTPAPDDLAQLKNLRSEEQKKKNRKKLPEKPKPNGRTVEVPEDEVVRNPRSITAKQAPETDKKNEKSKKNKKKSKSDAKAVQNSSRHDGKEVDEGAWETKISHREKRQQRKRDKVLTDSGSLDSTIPGIENIITVTTEQLTTASFPVGSKKNKGDSHLNVQVSNFKSGKGDSTLQVSSRLNENLTVNGGGWSEKSVKLSSQLSEEKWNSVPPASAGKRKTEPSAWTQDTGDTNANGKDWGRNWSDRSIFSGIGSTAEPVSQSTTSDYQWDVSRNQPYIDDEWSGLNGLSSARPSSRDNAPAEEWGNWVDEDRASLLKSQEPISNDQKVSDDDKEKGEGALPTGKSKKKKKKKKKQGEDNSHTQDTEDLEKDTREELPVNTSKARPKQEKACSLKTMSTSDPAEVLIKNSQPVKTLPPAISAEPSITLSKGDSDNSSSQVPPMLQDTDKPKSNAKQNSVPPSQTKSETNWESPKQIKKKKKARRET [D386R;D390R;W391D] | disrupting interaction strength
MAARSWQDELAQQAEEGSARLRELLSVGLGFLRTELGLDLGLEPKRYPGWVILVGTGALGLLLLFLLGYGWAAACAGARKKRRSPPRKREEAAPPTPAPDDLAQLKNLRSEEQKKKNRKKLPEKPKPNGRTVEVPEDEVVRNPRSITAKQAPETDKKNEKSKKNKKKSKSDAKAVQNSSRHDGKEVDEGAWETKISHREKRQQRKRDKVLTDSGSLDSTIPGIENIITVTTEQLTTASFPVGSKKNKGDSHLNVQVSNFKSGKGDSTLQVSSRLNENLTVNGGGWSEKSVKLSSQLSEEKWNSVPPASAGKRKTEPSAWTQDTGDTNANGKDWGRNWSDRSIFSGIGSTAEPVSQSTTSDYQWDVSRNQPYIDDEWSGLNGLSSADPSSDDNAPAEEWGNWVDEDRASLLKSQEPISNDQKVSDDDKEKGEGALPTGKSKKKKKKKKKQGEDNSHTQDTEDLEKDTREELPVNTSKARPKQEKACSLKTMSTSDPAEVLIKNSQPVKTLPPAISAEPSITLSKGDSDNSSSQVPPMLQDTDKPKSNAKQNSVPPSQTKSETNWESPKQIKKKKKARRET [W391D] | disrupting interaction strength
MAARSWQDELAQQAEEGSARLRELLSVGLGFLRTELGLDLGLEPKRYPGWVILVGTGALGLLLLFLLGYGWAAACAGARKKRRSPPRKREEAAPPTPAPDDLAQLKNLRSEEQKKKNRKKLPEKPKPNGRTVEVPEDEVVRNPRSITAKQAPETDKKNEKSKKNKKKSKSDAKAVQNSSRHDGKEVDEGAWETKISHREKRQQRKRDKVLTDSGSLDSTIPGIENIITVTTEQLTTASFPVGSKKNKGDSHLNVQVSNFKSGKGDSTLQVSSRLNENLTVNGGGWSEKSVKLSSQLSEEKWNSVPPASAGKRKTEPSAWTQDTGDTNANGKDWGRNWSDRSIFSGIGSTAEPVSQSTTSDYQWDVSRNQPYIDDEWSGLNGLSSADPSSDWNAPARRDGNWVDEDRASLLKSQEPISNDQKVSDDDKEKGEGALPTGKSKKKKKKKKKQGEDNSHTQDTEDLEKDTREELPVNTSKARPKQEKACSLKTMSTSDPAEVLIKNSQPVKTLPPAISAEPSITLSKGDSDNSSSQVPPMLQDTDKPKSNAKQNSVPPSQTKSETNWESPKQIKKKKKARRET [E396R;E397R;W398D] | disrupting interaction strength
MAARSWQDELAQQAEEGSARLRELLSVGLGFLRTELGLDLGLEPKRYPGWVILVGTGALGLLLLFLLGYGWAAACAGARKKRRSPPRKREEAAPPTPAPDDLAQLKNLRSEEQKKKNRKKLPEKPKPNGRTVEVPEDEVVRNPRSITAKQAPETDKKNEKSKKNKKKSKSDAKAVQNSSRHDGKEVDEGAWETKISHREKRQQRKRDKVLTDSGSLDSTIPGIENIITVTTEQLTTASFPVGSKKNKGDSHLNVQVSNFKSGKGDSTLQVSSRLNENLTVNGGGWSEKSVKLSSQLSEEKWNSVPPASAGKRKTEPSAWTQDTGDTNANGKDWGRNWSDRSIFSGIGSTAEPVSQSTTSDYQWDVSRNQPYIDDEWSGLNGLSSADPSSDWNAPAEEDGNWVDEDRASLLKSQEPISNDQKVSDDDKEKGEGALPTGKSKKKKKKKKKQGEDNSHTQDTEDLEKDTREELPVNTSKARPKQEKACSLKTMSTSDPAEVLIKNSQPVKTLPPAISAEPSITLSKGDSDNSSSQVPPMLQDTDKPKSNAKQNSVPPSQTKSETNWESPKQIKKKKKARRET [W398D] | disrupting interaction strength

From IntAct's records for PubMed 24981741
